Test results: patent US20180371066A1 (C2N DIAGNOSTICS, published 2018)
Substitutions are numbered along the chain they refer to.

B1: chimeric HJ8.5 monoclonal antibody (antibody, V domains shown)
VH: EVKVEESGGGLVQPGGSMKLSCVVSGFTFSNYWVNWVRQSPEKGLEWVAQIRLKSDNYATHYEESVKGRFTISRDDSKSSVYLQMNNLRAEDSGIYYCTNWEDYWGQGTTLTVSS
VL: DIVLTQSPASLAVSLGQRATISCRASQSVSTSRYSYIHWYQQKPGQPPKLLIKYASNLESGVPARFSGSGSGTDFTLNIHPLEEEDAATYYCHHSWEIPLTFGAGTKLELK
notes: also called chimera; chimeric antibody
B2: VH2/VK2 humanized anti-tau antibody (antibody, human IgG4 S228P, kappa, V domains shown)
VH: B1 VH with E5V, M18L, S40A, E42G, N87S, S93T, L111V
VL: DIVLTQSPDSLAVSLGERATISCRASQSVSTSRYSYIHWYQQKPGQPPKLLIKYASNLESGVPSRFSGSGSGTDFTLNIHPLEPEDFATYYCHHSWEIPLTFGQGTKLEIKR
notes: Humanized variant of HJ8.5
B3: VH3/VK3 humanized anti-tau antibody (antibody, human IgG4 S228P, kappa)
heavy: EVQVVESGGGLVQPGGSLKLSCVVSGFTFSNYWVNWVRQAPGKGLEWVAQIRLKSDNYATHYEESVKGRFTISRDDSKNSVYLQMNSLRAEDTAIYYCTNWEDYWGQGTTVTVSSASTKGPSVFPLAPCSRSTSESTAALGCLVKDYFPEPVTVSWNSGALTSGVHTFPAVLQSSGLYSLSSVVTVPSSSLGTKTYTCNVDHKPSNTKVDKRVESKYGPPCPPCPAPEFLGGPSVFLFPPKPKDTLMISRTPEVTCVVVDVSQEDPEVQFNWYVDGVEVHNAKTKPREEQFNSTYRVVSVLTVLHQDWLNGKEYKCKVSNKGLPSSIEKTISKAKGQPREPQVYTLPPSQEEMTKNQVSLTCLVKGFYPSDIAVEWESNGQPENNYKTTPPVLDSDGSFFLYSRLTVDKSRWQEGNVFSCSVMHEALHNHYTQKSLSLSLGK
light: DIVLTQSPDSLAVSLGERATISCRASQSVSTSRYSYIHWYQQKPGQPPKLLIKYASNLESGVPSRFSGSGSGTDFTLTISSLQPEDFATYYCHHSWEIPLTFGQGTKLEIKRTVAAPSVFIFPPSDEQLKSGTASVVCLLNNFYPREAKVQWKVDNALQSGNSQESVTEQDSKDSTYSLSSTLTLSKADYEKHKVYACEVTHQGLSSPVTKSFNRGEC
notes: Humanized variant of HJ8.5
B4: VH1/VK3 humanized anti-tau antibody (antibody, human IgG4 S228P, kappa)
heavy: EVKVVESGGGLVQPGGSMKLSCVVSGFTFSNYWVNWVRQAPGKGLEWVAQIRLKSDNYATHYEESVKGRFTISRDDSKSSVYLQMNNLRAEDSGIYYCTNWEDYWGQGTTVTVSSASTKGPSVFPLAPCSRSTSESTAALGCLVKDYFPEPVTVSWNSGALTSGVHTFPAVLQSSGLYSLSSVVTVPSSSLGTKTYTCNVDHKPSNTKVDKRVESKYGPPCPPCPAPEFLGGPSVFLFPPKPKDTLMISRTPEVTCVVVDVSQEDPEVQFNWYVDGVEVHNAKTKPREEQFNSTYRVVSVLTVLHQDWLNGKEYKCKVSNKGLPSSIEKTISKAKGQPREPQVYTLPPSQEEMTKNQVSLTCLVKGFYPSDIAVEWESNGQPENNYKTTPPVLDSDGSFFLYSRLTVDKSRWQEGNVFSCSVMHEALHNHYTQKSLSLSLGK
light: B3 light
notes: Humanized variant of HJ8.5
B5: VH3/VK2 humanized anti-tau antibody (antibody, human IgG4 S228P, kappa, V domains shown)
VH: B1 VH with K3Q, E5V, M18L, S40A, E42G, S79N, N87S, S93T, G94A, L111V
VL: B2 VL
notes: Humanized variant of HJ8.5
B6: VH2/VK3 humanized anti-tau antibody (antibody, human IgG4 S228P, kappa)
heavy: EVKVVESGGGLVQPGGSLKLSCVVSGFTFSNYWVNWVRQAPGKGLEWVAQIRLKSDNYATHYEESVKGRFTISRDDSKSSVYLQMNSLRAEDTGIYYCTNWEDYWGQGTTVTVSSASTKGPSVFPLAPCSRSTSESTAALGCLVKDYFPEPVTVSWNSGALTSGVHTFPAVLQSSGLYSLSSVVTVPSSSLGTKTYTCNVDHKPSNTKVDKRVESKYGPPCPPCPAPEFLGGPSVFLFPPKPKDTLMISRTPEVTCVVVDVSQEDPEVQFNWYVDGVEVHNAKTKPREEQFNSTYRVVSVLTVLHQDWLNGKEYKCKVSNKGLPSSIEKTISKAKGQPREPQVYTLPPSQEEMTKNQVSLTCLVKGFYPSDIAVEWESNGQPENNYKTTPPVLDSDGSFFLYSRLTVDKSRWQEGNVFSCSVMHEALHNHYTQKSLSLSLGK
light: B3 light
notes: Humanized variant of HJ8.5

What was measured:
[1] = biological target: T1, recombinant human Tau-412 protein (human, UniProt P10636-7 1-412); assay: SPR Biacore T200, mAb captured on Protein A, Tau-412 analyte, 1-to-1 model, chip A11/1
T1 construct: Analyte of the SPR study; also called human tau (1N4R, 412 amino acids)
Procedure: (§1) Kinetic data was obtained at a flow rate of 40 μL/min to minimize any potential mass transfer effects. Two repeats of the blank (no antigen) and the 2.5 nM concentration of the analyte were programmed into the kinetic run in order to check the stability of both the surface and analyte over the kinetic cycles. For the initial kinetic runs, 2-fold dilutions of Tau-412 from 40 nM to 0.156 nM were run. For kinetic analysis and on subsequent runs, an analyte range of 20 nM to 0.625 nM was selected. This range covered multiple analyte concentrations both above and below the reported KD.
(§2) The association phase was monitored for 500 seconds to allow some of the higher concentrations of analyte to reach steady state. In order to observe a sufficient signal decrease (>10%) during the dissociation phase of the kinetic cycle, dissociation was measured for 1200 seconds. As discussed in Section 5, the Fcs were allowed to stabilize for 600 seconds after each regeneration step. The signal from the reference channel Fc1 was subtracted from that of Fc2, Fc3 and Fc4.
(§3) The kinetic parameters for the interaction of Tau-412 with the 7 mAbs as measured using the Protein A capture system on the Biacore T200 are shown in Table F-2. To correct for differences in the capture level of the antibody between each binding cycle, a local Rₘₐₓ parameter was used in the 1-to-1 binding model. Kinetic analysis was performed in three independent runs using fresh preparations of Tau-412 and antibody. Run 1 and runs 2+3 used different vials of the antigen Tau-412; therefore the reported errors associated with the mean response probably represent variation in preparation of the analyte and differences in assay set-up and run. From run 1 to runs 2+3, the amount of antibody injected was adjusted to try to get closer to the target 300 RU capture levels.

human tau [2] = biological target: T2, human tau (human, UniProt P10636 2-60); assay: competition ELISA on plate-coated human tau against biotinylated HJ8.5; IC50 normalised to chimeric HJ8.5 (reference row); column External
T2 construct: also called soluble human tau; human tau protein
T2 sequence (P10636 2-60 limits assumed): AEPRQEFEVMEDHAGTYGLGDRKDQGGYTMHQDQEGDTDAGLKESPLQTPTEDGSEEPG

[3] = biological target: T1, recombinant human Tau-412 protein; assay: SPR Biacore T200, mAb captured on Protein A, Tau-412 analyte, 1-to-1 model, chip A11/2
Procedure: as §1, §2, §3

[4] = biological target: T1, recombinant human Tau-412 protein; assay: SPR Biacore T200, Protein A capture, mean of the Chimeric runs
Procedure: as §1, §2, §3

human tau [5] = biological target: T2, human tau; assay: competition ELISA on plate-coated human tau against biotinylated HJ8.5; IC50 normalised to chimeric HJ8.5 (reference row); column C2N Run 2
human tau [6] = biological target: T2, human tau; assay: competition ELISA on plate-coated human tau against biotinylated HJ8.5; IC50 normalised to chimeric HJ8.5 (reference row); column C2N Run 1
[7] = biological target: T1, recombinant human Tau-412 protein; assay: SPR Biacore T200, mAb captured on Protein A, Tau-412 analyte, 1-to-1 model, chip A11/3
Procedure: as §1, §2, §3

human tau [8] = biological target: T2, human tau; assay: competition ELISA on plate-coated human tau against biotinylated HJ8.5; IC50 normalised to chimeric HJ8.5; column External
human tau [9] = biological target: T2, human tau; assay: competition ELISA on plate-coated human tau against biotinylated HJ8.5; IC50 normalised to chimeric HJ8.5; column C2N Run 2
human tau [10] = biological target: T2, human tau; assay: competition ELISA on plate-coated human tau against biotinylated HJ8.5; IC50 normalised to chimeric HJ8.5; column C2N Run 1
[11] = biological target: T1, recombinant human Tau-412 protein; assay: SPR Biacore T200, Protein A capture, mean of the VH2/VK2 runs
Procedure: as §1, §2, §3
Target sequence in this assay (P10636 other isoform, or with tags, fused parts or gaps limits assumed): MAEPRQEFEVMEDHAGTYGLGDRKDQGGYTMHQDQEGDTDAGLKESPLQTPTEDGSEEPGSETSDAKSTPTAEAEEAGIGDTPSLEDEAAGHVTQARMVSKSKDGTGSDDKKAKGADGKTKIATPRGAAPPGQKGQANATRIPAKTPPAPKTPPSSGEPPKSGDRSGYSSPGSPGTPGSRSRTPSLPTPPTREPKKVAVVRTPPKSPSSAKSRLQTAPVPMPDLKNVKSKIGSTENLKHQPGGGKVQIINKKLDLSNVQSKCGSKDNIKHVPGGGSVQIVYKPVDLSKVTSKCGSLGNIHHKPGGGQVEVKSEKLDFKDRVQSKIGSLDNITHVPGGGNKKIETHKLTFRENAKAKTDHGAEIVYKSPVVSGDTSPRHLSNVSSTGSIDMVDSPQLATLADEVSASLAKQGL

[12] = biological target: T1, recombinant human Tau-412 protein; assay: SPR Biacore T200, Protein A capture, mean of the VH3/VK3 runs
Procedure: as §1, §2, §3

[13] = biological target: T1, recombinant human Tau-412 protein; assay: SPR Biacore T200, Protein A capture, mean of the VH1/VK3 runs
Procedure: as §1, §2, §3
Target sequence in this assay (P10636 other isoform, or with tags, fused parts or gaps limits assumed): as above

[14] = biological target: T1, recombinant human Tau-412 protein; assay: SPR Biacore T200, Protein A capture, mean of the VH3/VK2 runs
Procedure: as §1, §2, §3
Target sequence in this assay (P10636 other isoform, or with tags, fused parts or gaps limits assumed): as above

[15] = biological target: T1, recombinant human Tau-412 protein; assay: SPR Biacore T200, Protein A capture, mean of the VH2/VK3 runs
Procedure: as §1, §2, §3
Target sequence in this assay (P10636 other isoform, or with tags, fused parts or gaps limits assumed): as above

Row | Kd [1] | koff [1] | kon [1] | Kd [3] | koff [3] | kon [3] | IC50 (Relative to Chimera) (human tau [8]) | IC50 (Relative to Chimera) (human tau [9]) | IC50 (Relative to Chimera) (human tau [10]) | also measured | Binder
1 | 2.23 nM | 0.0016 s⁻¹ | 718000 M⁻¹ s⁻¹ | 1.79 nM | 0.0013 s⁻¹ | 722000 M⁻¹ s⁻¹ | – | – | – | IC50 (Relative to Chimera) (human tau [2]): 1 relative to Chimera; Kd [4]: 1.99 nM; koff [4]: 0.00143 s⁻¹; kon [4]: 721000 M⁻¹ s⁻¹; IC50 (Relative to Chimera) (human tau [5]): 1 relative to Chimera; IC50 (Relative to Chimera) (human tau [6]): 1 relative to Chimera; Kd [7]: 1.94 nM; koff [7]: 0.0014 s⁻¹; kon [7]: 723000 M⁻¹ s⁻¹ | B1
2 | 2.4 nM | 0.000628 s⁻¹ | 262000 M⁻¹ s⁻¹ | 2.06 nM | 0.000587 s⁻¹ | 284000 M⁻¹ s⁻¹ | 1.12 relative to Chimera | 0.85 relative to Chimera | 1.37 relative to Chimera | Kd [11]: 2.23 nM; koff [11]: 0.000608 s⁻¹; kon [11]: 273000 M⁻¹ s⁻¹ | B2
3 | 2.2 nM | 0.000559 s⁻¹ | 254000 M⁻¹ s⁻¹ | 1.65 nM | 0.000454 s⁻¹ | 276000 M⁻¹ s⁻¹ | 0.93 relative to Chimera | 1.34 relative to Chimera | 0.84 relative to Chimera | Kd [12]: 1.92 nM; koff [12]: 0.000507 s⁻¹; kon [12]: 265000 M⁻¹ s⁻¹ | B3
4 | 2.24 nM | 0.000626 s⁻¹ | 280000 M⁻¹ s⁻¹ | 1.94 nM | 0.000572 s⁻¹ | 295000 M⁻¹ s⁻¹ | – | – | – | Kd [13]: 2.09 nM; koff [13]: 0.000599 s⁻¹; kon [13]: 287000 M⁻¹ s⁻¹ | B4
5 | 2.08 nM | 0.000546 s⁻¹ | 262000 M⁻¹ s⁻¹ | 1.67 nM | 0.000485 s⁻¹ | 290000 M⁻¹ s⁻¹ | 0.94 relative to Chimera | 1.28 relative to Chimera | 0.81 relative to Chimera | Kd [14]: 1.88 nM; koff [14]: 0.000515 s⁻¹; kon [14]: 276000 M⁻¹ s⁻¹ | B5
6 | 2.44 nM | 0.000653 s⁻¹ | 268000 M⁻¹ s⁻¹ | 1.83 nM | 0.000533 s⁻¹ | 292000 M⁻¹ s⁻¹ | 0.94 relative to Chimera | 0.97 relative to Chimera | 1.17 relative to Chimera | Kd [15]: 2.13 nM; koff [15]: 0.000593 s⁻¹; kon [15]: 280000 M⁻¹ s⁻¹ | B6
